Data set [1] addresses T1, thrombin (alpha-thrombin) (Homo sapiens, UniProt P00734;P00734 P00734:315-363,P00734:364-622). In words: filter; DPBS Ca2+ Mg2+, 0.1 mg/ml BSA.
For data set [2], the target named is prothrombin (Homo sapiens, UniProt P00734 P00734:44-622). In words: filter; 50 nM prothrombin. To be noted: tags: Athens Research. The method in brief:
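Trace 5′-³²P-labeled RNA clones incubated ±50 nM prothrombin with 0.1 mg/ml BSA in 1×DPBS (with Ca²⁺/Mg²⁺), 30 min. Bound RNA captured on nitrocellulose, free RNA on nylon; filters quantified by phosphorimaging. Single-point screen.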

In data set [3] the target is T2, thrombin (endogenous, clotting assay in plasma or whole blood) (Homo sapiens, UniProt P00734;P00734 P00734:328-363,P00734:364-622). Description: inhibition; PT at 10 uM.
Data set [4] has as its target T2, thrombin (endogenous, clotting assay in …). Description: inhibition; PT at 10 uM, instrument maximum.
For data set [5] the target is unchanged. Description: inhibition; PT at 10 uM, parent 300 s.
Data set [6] has the same target. Description: inhibition; ACT at 10 uM.
The target in data set [7] is thrombin (endogenous, in vivo, ACT of whole blood) (Macaca fascicularis, UniProt A0A2K5UZ51;A0A2K5UZ51 A0A2K5UZ51:325-360,A0A2K5UZ51:361-619). In words: inhibition; maximum ACT in monkey, IV bolus 0.46 umol/kg.
The target of data set [8] is T1, thrombin (alpha-thrombin). Description: filter; DPBS Ca Mg, BSA, RT.
Data set [9] has as its target T1, thrombin (alpha-thrombin). Description: filter; NB, non binder.
Data set [10] has as its target thrombin (Sus scrofa, UniProt Q19AZ8;Q19AZ8 Q19AZ8:316-364,Q19AZ8:365-622). Description: filter; species cross-reactivity.
In data set [11] the target is T1, thrombin (alpha-thrombin). In words: filter.
Data set [12] has as its target T1, thrombin (alpha-thrombin). In words: filter; DPBS Ca2+ Mg2+, 0.1 mg/ml BSA, room temp.

One may read the Kd as a measure of binding affinity in units of concentration. Low values mean higher affinity, high ones lower affinity.

The molecule TCCCGATTGGAAAGCCTAGGATGGGTAGGGTGGTGGCTGAGGATCGATC (ssDNA) [AMX(399)_F12] registered a Kd in data set [1] of 0.66 nM. The molecule further showed a binding signal in data set [2] of 48.2 % bound. The same molecule had an activity in data set [3] of 74.9 s.

The molecule TCCTGATCGGATGTGGTGGGTTATTGGTTTGGGTGGCTGAGGATCGATC (ssDNA) [AMX(453)_F6] gave an activity in [4] of 300 s.

For CCGGCTAGGTTGGGTAGGGTGGTGGCTGG (ssDNA) [Minimer 11], the activity in data set [5] was 27.9 s.

Molecule TCCCATGAACTCAGGGTAATTTTTTGGTGTGGGTGGCTGAGGATCGATC (ssDNA) [AMX(398)_D9] registered a Kd in data set [1] of 5.64 nM. Moreover, the binding signal in [2] was found to be 41.8 % bound. In addition, in [3], the activity is 80.8 s.

The molecule CGCCTAGGTTGGGTAGGGTGGTGGCG (ssDNA, 5'-PEG 10 kDa via hexylamine) [ARC2329] had an activity in [6] of 664 s.

With ACTGCCTAGGTTGGGTAGGGTGGTGGCAGT (ssDNA, 5'-PEG 10 kDa via hexylamine) [ARC2323], the activity in [6] was found to be 514 s.

CGCTAGGTTGGGTAGGGTGGTGCG (ssDNA, 2'-OMe at positions 1, 2, 23, 24) [ARC2949] came in with an activity in [7] of 403 s.

In [8], ACTGCCTAGGTTGGGTAGGGTGGTGGCAGT (ssDNA, PS linkage between nt 1 and 2) [ARC2644] returned a Kd of 0.183 nM.

For ACTGCCTAGGTTGGGTAGGGUGGTGGCAGT (XNA, 2'-OMe U21, rest DNA) [ARC2633], in data set [9], the binding result is recorded as “no binding”.

For the molecule CGCCTAGGTTGGGTAGGGTGGTGGCG (ssDNA) [ARC2172], the binding result in data set [10] is “binds”. In data set [7], this molecule came in with an activity of 527 s. This molecule came in with a Kd in data set [11] of 0.14 nM.

In data set [1], TCCCCGATGTGTCAGCCTAGGGTGGTTAGGGTGGTGGCTGAGGATCGATC (ssDNA) [AMX(398)_C5] registered a Kd of 2.2 nM. For the same molecule, the binding signal in [2] was 19.2 % bound. This molecule had an activity in data set [3] of 64.7 s.

The molecule TCCCATCGAGCTCAGTCTAGGATGGGTAGGGTGGTGGCTGAGGATCGATC (ssDNA) [AMX(453)_B6] had an activity in data set [4] of 300 s.

ACTGCCTAGGTTGGGTAGGGTGGTGGCAGT (ssDNA) [ARC2169] yielded an activity in [7] of 542 s. Also, the affinity in data set [11], expressed as Kd, was 0.135 nM.

Regarding TCCCATCTTCTGTAGCCTAGGTTGGGTAGGGTGGTGGCTGAGGATCGATC (ssDNA) [AMX(398)_H5], the activity in [3] stood at 71 s.

In the case of TCCCTGCAATTCGATCAGCAGGGGTGGTGTGGGTGGCTGAGGATCGATC (ssDNA) [AMX(395)_A1], in data set [12], binding was characterised by a dissociation constant (Kd) of 6.4 nM.

With GGCCGATCAGGCTAGGTTGGGTAGGGTGGTGGCTGAGGATCGGCC (ssDNA) [Minimer 7], the activity in [5] is 83.3 s.

In the case of TCCCGAGCGATACTGCCTAGGCTGGGTAGGGTGGTGGCTGAGGATCGATC (ssDNA) [AMX(398)_C10], in data set [1], the Kd came to 3.27 nM. The same molecule had a binding signal in data set [2] of 40.9 % bound. The same molecule returned an activity in [3] of 58.8 s.

In the case of TCCCGAGCGATATTGCCTAGGTTGGGTAGGGTGGTGGCTGAGGATCGATC (ssDNA) [AMX(454)_F2], the activity in data set [4] was found to be 300 s.

In data set [1], TCCCGAGGGACGACGCCTAGGTTGGGTAGGGTGGTGGCTGAGGATCGATC (ssDNA) [AMX(399)_C11] showed a Kd of 1.74 nM. In data set [2], this molecule had a binding signal of 41.6 % bound. The same molecule returned an activity in [3] of 52.6 s.

CGCCTAGGTTGGGTAGGGTGGTGGCG (ssDNA, 5'-hexylamine) [ARC2324] registered an activity in [6] of 424 s.

On to GGTTGGGTAGGGTGG (ssDNA) [Minimer 3], for which, in data set [5], the activity was determined as 25.8 s.

For the molecule ACTGCCTAGGTUGGGTAGGGTGGTGGCAGT (XNA, 2'-OMe U12, rest DNA) [ARC2624], the binding result in data set [9] was “no binding”.

The record behind these values is patent US20090221680, “Aptamers that bind thrombin with high affinity” (published 2009).
